The labels stand for the following.
B1: P601-149 (scFv, from another filing, V domains shown)
VH: EAQLVESGGGLVKPGGSLRLSCAASGFTFSDYYMGWVRQAPGKGLKWLSYISDRAHTIYDTDSVKGRFTISRDDAKSSLYLRMNNLRVEDTAVYYCARAVGAGEGFDYWGQGTLVTVSS
VL: DIQLTQSPSSLSASVGDRVTITCQASQDVRNYLNWYQQKPGKAPNLLIYDATNLESGVPSRFSGSGSGTDFTFTISSLQPEDFATYYCQQYDNLPLSFGGGTKVEIK
B2: P601-153 (scFv, from another filing, V domains shown)
VH: QMQLVQSGAEVKKPGASVKVSCKASGYTFTSYYMHWVRQAPGQGLEWMGIINPSGGSTSYAQKFQGRVTMTRDTSTSTVYMELSSLRSEDTAVYYCARGGYTGWSPSDPWGQGTLVTVSS
VL: QSALTQPASVSGSPGQSITISCTGTSSDVGGYNYVSWYQQHPGKAPKFMIYDVSKRPSGVSNRFSGSKSGNTASLTISGLQAEDEADYYCGSFTSSITYVFGTGTKVTVL
B3: P601-128 (scFv, from another filing, V domains shown)
VH: EVQLVQSGAEVKKPGESLKISCKGSGYSFSRYWIGWVRQMPGKGLEWMGIIYPRDSDTRYSPSFQGQVTISADKSISTAYLQWSSLKASDTAMYYCATPVVTAGAFDIWGQGTMVTVSS
VL: DIQMTQSPSSVSASVGDRVTITCRASQGISSWLAWYQQKPGKAPKLLIYAASSLQSGVPSRFSGSGSGTDFTLTISSLQPEDFATYYCQQANSFPLTFGGGTKVEIK

The target of the assay is human ROR1 extracellular domain (ECD) protein (human) (UniProt Q01973). Briefly: competitive phage ELISA, soluble vs coated ROR1. (In general: In an ELISA, binding on a coated surface is turned into a signal by an enzyme label.)
Sequence of human ROR1 extracellular domain (ECD) protein (human) (Q01973 30-406 limits assumed): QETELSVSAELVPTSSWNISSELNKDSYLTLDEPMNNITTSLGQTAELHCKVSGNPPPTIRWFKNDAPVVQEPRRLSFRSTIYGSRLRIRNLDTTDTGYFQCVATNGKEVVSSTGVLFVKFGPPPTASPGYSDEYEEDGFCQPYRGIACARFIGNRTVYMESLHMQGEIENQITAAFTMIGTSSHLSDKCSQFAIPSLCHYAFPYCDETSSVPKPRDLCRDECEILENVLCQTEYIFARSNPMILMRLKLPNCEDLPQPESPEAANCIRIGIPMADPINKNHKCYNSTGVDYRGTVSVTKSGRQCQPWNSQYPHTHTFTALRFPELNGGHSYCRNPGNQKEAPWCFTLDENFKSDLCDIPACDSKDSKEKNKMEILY
B1: the IC50 (in general, the point on the concentration scale where inhibition reaches its midpoint) turned out to be 2.76 nM.
Then B2, with 1.53 nM; and B3, with 263 nM.

The values are drawn from patent publication US20180142016A1.
